test system: Escherichia coli TOP10; assay: shrunken log2 fold change of peptide-encoding DNA abundance (4.5 h post-induction vs induction); higher = less antimicrobial activity (less host growth inhibition); conditions: time post-induction: 4.5 h; library: site-saturation at positions 5, 18, 19, 20
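Further: peptides expressed intracellularly from a pBAD plasmid library in pooled LB shake-flask culture, induced with 0.3% L-arabinose, DNA abundance read by NGS, three biological replicates, DESeq2 with apeglm shrinkage.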

In order of falling “shrunken log2 fold change” value:
1. RRIRGRPPRLPRPRPRPTAEPRP  3.04
2. RRIRIRPPRLPRPRPRPPAMPRP  1.68
3. RRIRMRPPRLPRPRPRPECIPRP  1.61
4. RRIRLRPPRLPRPRPRPPPDPRP  1.19
5. RRIRPRPPRLPRPRPRPQVYPRP  0.962
6. RRIRDRPPRLPRPRPRPLGAPRP  0.751
7. RRIRGRPPRLPRPRPRPLCVPRP  0.689
8. RRIRRRPPRLPRPRPRPMGAPRP  0.658
9. RRIRPRPPRLPRPRPRPTGDPRP  0.649
10. RRIRCRPPRLPRPRPRPTHEPRP  0.628
11. RRIRGRPPRLPRPRPRPVHWPRP  0.601
12. RRIRGRPPRLPRPRPRPHLAPRP  0.601
13. RRIRGRPPRLPRPRPRPPMSPRP  0.565
14. RRIRRRPPRLPRPRPRPQAKPRP  0.418
15. RRIRLRPPRLPRPRPRPVAEPRP  0.396
16. RRIRRRPPRLPRPRPRPVNPPRP  0.391
17. RRIRVRPPRLPRPRPRPADWPRP  0.379
18. RRIRARPPRLPRPRPRPSACPRP  0.359
19. RRIRKRPPRLPRPRPRPRAFPRP  0.326
20. RRIRMRPPRLPRPRPRPWGCPRP  0.311
21. RRIRDRPPRLPRPRPRPPMDPRP  0.28
22. RRIRNRPPRLPRPRPRPMPDPRP  0.259
23. RRIRLRPPRLPRPRPRPTQRPRP  0.248
24. RRIRARPPRLPRPRPRPHWPPRP  0.233
25. RRIRHRPPRLPRPRPRPTQMPRP  0.222
26. RRIRFRPPRLPRPRPRPRMQPRP  0.206
27. RRIRTRPPRLPRPRPRPQKRPRP  0.206
28. RRIRARPPRLPRPRPRPTYAPRP  0.2
29. RRIRSRPPRLPRPRPRPIADPRP  0.191
30. RRIRMRPPRLPRPRPRPVWKPRP  0.178
31. RRIRMRPPRLPRPRPRPMGPPRP  0.168
32. RRIRQRPPRLPRPRPRPAQWPRP  0.166
33. RRIRHRPPRLPRPRPRPMAFPRP  0.166
34. RRIRCRPPRLPRPRPRPAKAPRP  0.162
35. RRIRLRPPRLPRPRPRPREPPRP  0.139
36. RRIRRRPPRLPRPRPRPETYPRP  0.0872
37. RRIRSRPPRLPRPRPRPPWNPRP  0.0621
38. RRIRDRPPRLPRPRPRPDCKPRP  0.0499
39. RRIRQRPPRLPRPRPRPHSHPRP  0.0496
40. RRIRIRPPRLPRPRPRPGRVPRP  0.0447
41. RRIRPRPPRLPRPRPRPLCKPRP  0.041
42. RRIRCRPPRLPRPRPRPRTCPRP  0.0191
43. RRIRQRPPRLPRPRPRPTDHPRP  0.0174
44. RRIRERPPRLPRPRPRPFASPRP  0.00624
45. RRIRTRPPRLPRPRPRPMSQPRP  -0.000911
46. RRIRDRPPRLPRPRPRPIGLPRP  -0.00129
47. RRIRRRPPRLPRPRPRPEKCPRP  -0.00259
48. RRIRRRPPRLPRPRPRPHEWPRP  -0.00636
49. RRIRMRPPRLPRPRPRPWEVPRP  -0.00931
50. RRIRRRPPRLPRPRPRPCEGPRP  -0.0173
51. RRIRARPPRLPRPRPRPKIFPRP  -0.0226
52. RRIRLRPPRLPRPRPRPHPKPRP  -0.0255
53. RRIRIRPPRLPRPRPRPEAIPRP  -0.0271
54. RRIRCRPPRLPRPRPRPETGPRP  -0.0271
55. RRIRHRPPRLPRPRPRPSSWPRP  -0.0281
56. RRIRRRPPRLPRPRPRPKVQPRP  -0.0356
57. RRIRIRPPRLPRPRPRPSQTPRP  -0.0359
58. RRIRKRPPRLPRPRPRPRNSPRP  -0.0385
59. RRIRSRPPRLPRPRPRPAESPRP  -0.04
60. RRIRPRPPRLPRPRPRPCFPPRP  -0.0413
61. RRIRGRPPRLPRPRPRPDFRPRP  -0.043
62. RRIRLRPPRLPRPRPRPNVSPRP  -0.0595
63. RRIRCRPPRLPRPRPRPTQYPRP  -0.0607
64. RRIRYRPPRLPRPRPRPVAPPRP  -0.0629
65. RRIRWRPPRLPRPRPRPSSNPRP  -0.0759
66. RRIRWRPPRLPRPRPRPGGQPRP  -0.0831
67. RRIRLRPPRLPRPRPRPLHSPRP  -0.0843
68. RRIRMRPPRLPRPRPRPSKCPRP  -0.0848
69. RRIRARPPRLPRPRPRPIPTPRP  -0.0942
70. RRIRGRPPRLPRPRPRPLNVPRP  -0.095
71. RRIRSRPPRLPRPRPRPCDFPRP  -0.108
72. RRIRIRPPRLPRPRPRPIWLPRP  -0.11
73. RRIRIRPPRLPRPRPRPNIYPRP  -0.111
74. RRIRKRPPRLPRPRPRPNIHPRP  -0.112
75. RRIRMRPPRLPRPRPRPLPFPRP  -0.117
76. RRIRPRPPRLPRPRPRPATIPRP  -0.118
77. RRIRYRPPRLPRPRPRPWCNPRP  -0.123
78. RRIRMRPPRLPRPRPRPHVNPRP  -0.132
79. RRIRDRPPRLPRPRPRPCRGPRP  -0.138
80. RRIRMRPPRLPRPRPRPYFGPRP  -0.138
81. RRIRSRPPRLPRPRPRPGITPRP  -0.151
82. RRIRERPPRLPRPRPRPETYPRP  -0.152
83. RRIRCRPPRLPRPRPRPLDTPRP  -0.153
84. RRIRYRPPRLPRPRPRPDGRPRP  -0.154
85. RRIRARPPRLPRPRPRPYHEPRP  -0.167
86. RRIRHRPPRLPRPRPRPQGAPRP  -0.171
87. RRIRFRPPRLPRPRPRPWNEPRP  -0.173
88. RRIRQRPPRLPRPRPRPSYHPRP  -0.178
89. RRIRNRPPRLPRPRPRPDFNPRP  -0.186
90. RRIRARPPRLPRPRPRPDIPPRP  -0.192
91. RRIRIRPPRLPRPRPRPAAIPRP  -0.199
92. RRIRSRPPRLPRPRPRPWVIPRP  -0.201
93. RRIRPRPPRLPRPRPRPEVLPRP  -0.204
94. RRIRLRPPRLPRPRPRPSTPPRP  -0.207
95. RRIRHRPPRLPRPRPRPHKIPRP  -0.215
96. RRIRRRPPRLPRPRPRPIVSPRP  -0.221
97. RRIRERPPRLPRPRPRPMDIPRP  -0.235
98. RRIRHRPPRLPRPRPRPMYSPRP  -0.263
99. RRIRFRPPRLPRPRPRPWCNPRP  -0.267
100. RRIRVRPPRLPRPRPRPPYIPRP  -0.28
101. RRIRNRPPRLPRPRPRPFPPPRP  -0.32
102. RRIRIRPPRLPRPRPRPAKEPRP  -0.374
103. RRIRCRPPRLPRPRPRPIDTPRP  -0.385
104. RRIRERPPRLPRPRPRPCIVPRP  -0.427
105. RRIRERPPRLPRPRPRPWLVPRP  -0.436
106. RRIRWRPPRLPRPRPRPHFVPRP  -0.438
107. RRIRQRPPRLPRPRPRPVIHPRP  -0.455
108. RRIRHRPPRLPRPRPRPHFKPRP  -0.455
109. RRIRQRPPRLPRPRPRPGYYPRP  -0.476
110. RRIRARPPRLPRPRPRPHHNPRP  -0.483
111. RRIRERPPRLPRPRPRPRMDPRP  -0.495
112. RRIRYRPPRLPRPRPRPPISPRP  -0.501
113. RRIRKRPPRLPRPRPRPYENPRP  -0.517
114. RRIRERPPRLPRPRPRPNWYPRP  -0.563
115. RRIRPRPPRLPRPRPRPVYLPRP  -0.6
116. RRIRQRPPRLPRPRPRPHKQPRP  -0.608
117. RRIRIRPPRLPRPRPRPLYKPRP  -0.622
118. RRIRIRPPRLPRPRPRPTNNPRP  -0.629
119. RRIRWRPPRLPRPRPRPSHMPRP  -0.668
120. RRIRQRPPRLPRPRPRPLYCPRP  -0.672
121. RRIRHRPPRLPRPRPRPKYKPRP  -0.679
122. RRIRFRPPRLPRPRPRPHFLPRP  -0.827
123. RRIRFRPPRLPRPRPRPYIQPRP  -0.841
124. RRIRHRPPRLPRPRPRPYWDPRP  -0.849
125. RRIRLRPPRLPRPRPRPYDKPRP  -0.951

Source: the supplement of paper PMC9112550, “Optimization of the antimicrobial peptide Bac7 by deep mutational scanning” (BMC Biology, 2022)
